Experimental data: US6994976

Target: mouse TR3 (mouse) (UniProt Q925D8)
Assay: flow cytometry on ConA-activated murine CD8+ T-cells, control stain

Sequence of UniProt Q925D8 (Q925D8 whole entry): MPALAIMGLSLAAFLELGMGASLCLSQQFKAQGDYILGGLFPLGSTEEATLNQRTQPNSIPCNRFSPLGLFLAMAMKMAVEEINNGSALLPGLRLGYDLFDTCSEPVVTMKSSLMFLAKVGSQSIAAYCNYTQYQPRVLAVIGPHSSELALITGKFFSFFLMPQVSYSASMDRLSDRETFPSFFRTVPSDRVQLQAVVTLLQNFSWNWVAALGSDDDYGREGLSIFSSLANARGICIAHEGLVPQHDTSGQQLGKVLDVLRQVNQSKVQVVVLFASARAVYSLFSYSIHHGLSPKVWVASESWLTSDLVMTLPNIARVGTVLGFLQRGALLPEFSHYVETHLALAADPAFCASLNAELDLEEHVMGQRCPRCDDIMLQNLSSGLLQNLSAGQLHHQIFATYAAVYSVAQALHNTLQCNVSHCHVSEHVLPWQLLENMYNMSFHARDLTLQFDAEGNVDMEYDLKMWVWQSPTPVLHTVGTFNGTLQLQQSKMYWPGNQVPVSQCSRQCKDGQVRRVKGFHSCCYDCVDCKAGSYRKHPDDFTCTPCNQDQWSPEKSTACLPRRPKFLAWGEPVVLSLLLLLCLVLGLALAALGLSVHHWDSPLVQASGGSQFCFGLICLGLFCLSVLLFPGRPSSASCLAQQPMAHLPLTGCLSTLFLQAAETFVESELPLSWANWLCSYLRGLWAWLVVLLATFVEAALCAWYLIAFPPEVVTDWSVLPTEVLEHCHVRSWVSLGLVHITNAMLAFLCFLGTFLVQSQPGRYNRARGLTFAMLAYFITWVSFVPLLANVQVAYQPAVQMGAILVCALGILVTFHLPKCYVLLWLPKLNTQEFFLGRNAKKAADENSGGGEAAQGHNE

percent of cells within the marker-1 (M1, unstained) region: 99%
Substance: normal (non-immune) rat serum (antibody)
